The values below come from PMC9445180 (2022).

For one assay, the target named is T1, HTRA2^PD/PDZ-LoopA^HTRA1 (human, UniProt O43464 134-167; O43464 178-458).
T1 chain: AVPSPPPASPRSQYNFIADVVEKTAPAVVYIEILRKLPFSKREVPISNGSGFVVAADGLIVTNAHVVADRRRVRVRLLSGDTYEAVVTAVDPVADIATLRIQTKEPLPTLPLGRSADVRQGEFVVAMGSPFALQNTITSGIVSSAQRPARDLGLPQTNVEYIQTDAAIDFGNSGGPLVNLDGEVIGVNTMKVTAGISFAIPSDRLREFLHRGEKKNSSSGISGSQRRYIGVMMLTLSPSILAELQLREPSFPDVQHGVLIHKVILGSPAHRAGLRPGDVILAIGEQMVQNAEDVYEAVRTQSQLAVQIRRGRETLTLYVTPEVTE
The assay is described as follows: SPR.

The next assay concerns the target T2, HTRA3^PD/PDZ-LoopA^HTRA1 (human, UniProt P83110 130-160; P83110 171-453).
T2 chain: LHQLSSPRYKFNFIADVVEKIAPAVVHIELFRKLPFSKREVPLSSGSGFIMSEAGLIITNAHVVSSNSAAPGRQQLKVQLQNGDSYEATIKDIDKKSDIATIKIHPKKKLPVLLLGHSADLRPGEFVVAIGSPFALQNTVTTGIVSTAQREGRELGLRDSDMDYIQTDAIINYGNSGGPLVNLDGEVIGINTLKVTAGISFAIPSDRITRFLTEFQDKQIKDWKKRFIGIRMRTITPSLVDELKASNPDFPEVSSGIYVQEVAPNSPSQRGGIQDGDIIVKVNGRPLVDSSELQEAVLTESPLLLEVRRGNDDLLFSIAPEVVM
The assay is described as follows: SPR.

B1: Fab15H6.v4 (Fab, V domains shown)
VH: EVQLVQSGAEVKKPGASVKVSCKASGYKFTDSEMHWVRQAPGQGLEWIGGVDPETEGAAYNQKFKGRATITRDTSTSTAYLELSSLRSEDTAVYYCTRGYDYDYALDYWGQGTLVTVSS
VL: DIQMTQSPSSLSASVGDRVTITCRASSSVEFIHWYQQKPGKAPKPLISATSNLASGVPSRFSGSGSGTDFTLTISSLQPEDFATYYCQQWSSAPWTFGQGTKVEIK
Take B1: the Kd in the assay with HTRA2^PD/PDZ-LoopA^HTRA1 turned out to be 0.0526 nM; with HTRA3^PD/PDZ-LoopA^HTRA1 it was 0.0356 nM.
